Experimental data reported in patent publication US20240376221A1.

Experiments:
[1] = molecular target: recombinant human OX40 (Acro Biosystems, cat. no. OXO-H5224) (human) (UniProt P43489); assay: BLI, Ab on AHC sensor, OX40 analyte
[2] = molecular target: human OX40, cell surface-expressed (human) (UniProt P43489); assay: flow cytometry, HEK293F cells with human OX40
[3] = molecular target: human OX40, cell surface-expressed (human) (UniProt P43489); assay: flow cytometry, ExpiCHO-S cells with human OX40
[4] = molecular target: recombinant human OX40 (Acro Biosystems, cat. no. OXO-H5224) (human) (UniProt P43489); assay: BLI cross-block; competitor (immobilized 1st Ab): IgG1-CD134-003
[5] = molecular target: recombinant human OX40 (Acro Biosystems, cat. no. OXO-H5224) (human) (UniProt P43489); assay: BLI cross-block; competitor (immobilized 1st Ab): IgG1-CD134-007
[6] = molecular target: recombinant human OX40 (Acro Biosystems, cat. no. OXO-H5224) (human) (UniProt P43489); assay: BLI cross-block; competitor (immobilized 1st Ab): IgG1-CD134-012
[7] = molecular target: recombinant human OX40 (Acro Biosystems, cat. no. OXO-H5224) (human) (UniProt P43489); assay: BLI cross-block; competitor (immobilized 1st Ab): IgG1-CD134-SF2
[8] = molecular target: recombinant human OX40 (Acro Biosystems, cat. no. OXO-H5224) (human) (UniProt P43489); assay: BLI cross-block; competitor (immobilized 1st Ab): IgG1-CD134-11D4
[9] = molecular target: recombinant human OX40 (Acro Biosystems, cat. no. OXO-H5224) (human) (UniProt P43489); assay: BLI cross-block; competitor (immobilized 1st Ab): IgG1-CD134-h3C8
[10] = molecular target: recombinant human OX40 (Acro Biosystems, cat. no. OXO-H5224) (human) (UniProt P43489); assay: BLI cross-block; competitor (immobilized 1st Ab): IgG1-CD134-A4453
[11] = molecular target: recombinant human OX40 (Acro Biosystems, cat. no. OXO-H5224) (human) (UniProt P43489); assay: BLI cross-block; competitor (immobilized 1st Ab): IgG1-CD134-Hu106
[12] = molecular target: cynomolgus monkey OX40, cell surface-expressed (cynomolgus monkey); assay: flow cytometry, HEK293F cells with cynomolgus monkey OX40
cynomolgus monkey OX40, cell surface-expressed (cynomolgus monkey), sequence (P43489 other isoform, or with tags, fused parts or gaps limits assumed): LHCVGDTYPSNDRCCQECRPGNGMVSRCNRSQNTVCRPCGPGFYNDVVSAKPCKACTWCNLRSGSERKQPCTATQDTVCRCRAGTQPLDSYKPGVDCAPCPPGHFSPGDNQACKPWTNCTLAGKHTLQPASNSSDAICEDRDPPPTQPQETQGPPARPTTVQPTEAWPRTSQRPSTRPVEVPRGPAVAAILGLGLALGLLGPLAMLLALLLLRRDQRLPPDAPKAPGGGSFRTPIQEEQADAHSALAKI

[13] = molecular target: recombinant human OX40 (Acro Biosystems, cat. no. OXO-H5224) (human) (UniProt P43489); assay: BLI cross-block; competitor (immobilized 1st Ab): IgG1-CD134-GBR830
[14] = molecular target: recombinant human OX40 (Acro Biosystems, cat. no. OXO-H5224) (human) (UniProt P43489); assay: BLI cross-block; competitor (immobilized 1st Ab): IgG1-CD134-IBI101
[15] = molecular target: recombinant human OX40 (Acro Biosystems, cat. no. OXO-H5224) (human) (UniProt P43489); assay: BLI cross-block; competitor (immobilized 1st Ab): IgG1-CD134-RG7888
[16] = molecular target: recombinant human OX40 (Acro Biosystems, cat. no. OXO-H5224) (human) (UniProt P43489); assay: BLI cross-block; competitor (immobilized 1st Ab): IgG1-CD134-ABBV368
[17] = molecular target: recombinant human OX40 (Acro Biosystems, cat. no. OXO-H5224) (human) (UniProt P43489); assay: BLI cross-block; competitor (immobilized 1st Ab): IgG1-CD134-49B4-RRE
[18] = molecular target: recombinant human OX40 (Acro Biosystems, cat. no. OXO-H5224) (human) (UniProt P43489); assay: BLI cross-block; competitor (immobilized 1st Ab): IgG1-CD134-MEDI0562
[19] = molecular target: recombinant human OX40 (Acro Biosystems, cat. no. OXO-H5224) (human) (UniProt P43489); assay: BLI cross-block; competitor (immobilized 1st Ab): IgG1-CD134-INCAGN1949
[20] = molecular target: recombinant cynomolgus monkey OX40 (Acro Biosystems, cat. no. OXO-C5220) (cynomolgus monkey); assay: BLI, Ab on AHC sensor, OX40 analyte; * binding observed, less reliable fit
recombinant cynomolgus monkey OX40 (Acro Biosystems, cat. no. OXO-C5220) (cynomolgus monkey), sequence (P43489 other isoform, or with tags, fused parts or gaps limits assumed): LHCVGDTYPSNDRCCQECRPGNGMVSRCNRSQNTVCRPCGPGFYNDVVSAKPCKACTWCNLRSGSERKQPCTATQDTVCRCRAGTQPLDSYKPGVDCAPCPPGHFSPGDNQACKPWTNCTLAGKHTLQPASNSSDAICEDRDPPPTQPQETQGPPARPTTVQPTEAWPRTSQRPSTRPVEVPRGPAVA

[21] = molecular target: recombinant human OX40 (Acro Biosystems, cat. no. OXO-H5224) (human) (UniProt P43489); assay: BLI cross-block; competitor (immobilized 1st Ab): IgG1-CD134-003-HC6LC2-RR
[22] = molecular target: human OX40 with mouse CRD1 (human with mouse CRD1) (UniProt P43489); assay: flow cytometry, ExpiCHO-S cells with human OX40 carrying mouse CRD1
human OX40 with mouse CRD1 (human with mouse CRD1), sequence (P43489 other isoform, or with tags, fused parts or gaps limits assumed): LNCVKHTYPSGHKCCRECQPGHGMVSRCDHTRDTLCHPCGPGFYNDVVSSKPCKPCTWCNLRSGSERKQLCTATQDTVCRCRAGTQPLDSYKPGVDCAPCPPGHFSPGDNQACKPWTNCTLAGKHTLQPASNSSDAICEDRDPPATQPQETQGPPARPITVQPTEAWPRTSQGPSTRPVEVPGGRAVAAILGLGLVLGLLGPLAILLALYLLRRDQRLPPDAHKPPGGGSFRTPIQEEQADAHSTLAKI

[23] = molecular target: human OX40 with mouse CRD3 (human with mouse CRD3) (UniProt P43489); assay: flow cytometry, ExpiCHO-S cells with human OX40 carrying mouse CRD3
human OX40 with mouse CRD3 (human with mouse CRD3), sequence (P43489 other isoform, or with tags, fused parts or gaps limits assumed): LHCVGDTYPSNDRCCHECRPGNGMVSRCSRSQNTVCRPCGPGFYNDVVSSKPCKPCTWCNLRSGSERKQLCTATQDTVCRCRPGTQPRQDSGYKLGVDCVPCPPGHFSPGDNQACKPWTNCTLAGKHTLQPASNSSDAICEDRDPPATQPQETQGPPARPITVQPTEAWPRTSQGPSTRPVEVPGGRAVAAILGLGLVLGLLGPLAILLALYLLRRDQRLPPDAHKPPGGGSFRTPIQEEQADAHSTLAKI

[24] = molecular target: human OX40 with mouse CRD4 (human with mouse CRD4) (UniProt P43489); assay: flow cytometry, ExpiCHO-S cells with human OX40 carrying mouse CRD4
human OX40 with mouse CRD4 (human with mouse CRD4), sequence (P43489 other isoform, or with tags, fused parts or gaps limits assumed): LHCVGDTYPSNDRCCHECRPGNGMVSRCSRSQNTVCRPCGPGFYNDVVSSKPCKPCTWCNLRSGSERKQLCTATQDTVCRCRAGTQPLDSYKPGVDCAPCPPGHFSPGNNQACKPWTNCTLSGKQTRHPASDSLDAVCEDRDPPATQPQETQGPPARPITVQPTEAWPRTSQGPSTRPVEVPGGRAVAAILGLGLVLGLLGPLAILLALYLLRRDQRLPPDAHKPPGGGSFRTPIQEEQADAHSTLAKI

[25] = molecular target: human FcγRIa, cell surface-expressed (human) (UniProt P12314); assay: flow cytometry, ExpiCHO-S cells transfected with human FcγRIa
human FcγRIa, cell surface-expressed (human), sequence (P12314 16-374): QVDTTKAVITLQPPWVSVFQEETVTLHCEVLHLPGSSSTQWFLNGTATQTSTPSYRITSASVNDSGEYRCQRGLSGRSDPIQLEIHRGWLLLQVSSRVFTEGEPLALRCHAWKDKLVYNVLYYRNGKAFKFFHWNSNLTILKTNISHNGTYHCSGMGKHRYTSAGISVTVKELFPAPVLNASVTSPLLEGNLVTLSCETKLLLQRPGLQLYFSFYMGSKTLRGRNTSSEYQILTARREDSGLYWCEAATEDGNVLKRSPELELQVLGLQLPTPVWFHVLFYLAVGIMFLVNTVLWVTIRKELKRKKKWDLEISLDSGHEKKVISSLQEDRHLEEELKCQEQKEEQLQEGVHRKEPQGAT

[26] = molecular target: His-tagged human recombinant FcγRIa (human) (UniProt P12314); assay: SPR, His-tagged FcγRIa captured on an anti-His chip, antibody injected
His-tagged human recombinant FcγRIa (human), sequence (P12314 16-288 limits assumed): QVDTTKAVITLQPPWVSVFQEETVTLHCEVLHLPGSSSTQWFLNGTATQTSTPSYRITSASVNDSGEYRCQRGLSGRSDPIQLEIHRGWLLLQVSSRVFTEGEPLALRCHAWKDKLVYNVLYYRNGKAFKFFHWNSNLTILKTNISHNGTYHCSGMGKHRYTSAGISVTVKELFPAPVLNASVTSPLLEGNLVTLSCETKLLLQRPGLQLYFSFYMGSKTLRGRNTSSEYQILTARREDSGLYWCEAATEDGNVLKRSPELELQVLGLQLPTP

[27] = molecular target: human OX40, cell surface-expressed (human) (UniProt P43489); assay: flow cytometry, activated CD4+ T cells, donor 1
[28] = molecular target: human OX40, cell surface-expressed (human) (UniProt P43489); assay: flow cytometry, activated CD4+ T cells, donor 2
[29] = molecular target: human OX40, cell surface-expressed (human) (UniProt P43489); assay: flow cytometry, activated CD4+ T cells, donor 3
[30] = molecular target: human OX40, cell surface-expressed (human) (UniProt P43489); assay: flow cytometry, activated CD8+ T cells, donor 1
[31] = molecular target: human OX40, cell surface-expressed (human) (UniProt P43489); assay: flow cytometry, activated CD8+ T cells, donor 2
[32] = molecular target: human OX40, cell surface-expressed (human) (UniProt P43489); assay: flow cytometry, activated CD8+ T cells, donor 3
[33] = molecular target: human OX40, cell surface-expressed (human) (UniProt P43489); assay: flow cytometry, activated CD4+ T cells, mean of 3 donors
[34] = molecular target: human OX40, cell surface-expressed (human) (UniProt P43489); assay: flow cytometry, activated CD8+ T cells, mean of 3 donors

IgG1-CD134-IBI101 (antibody), sequence (VH): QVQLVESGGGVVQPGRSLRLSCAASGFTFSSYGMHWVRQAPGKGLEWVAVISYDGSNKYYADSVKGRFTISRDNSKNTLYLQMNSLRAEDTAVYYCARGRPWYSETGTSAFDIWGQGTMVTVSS
IgG1-CD134-IBI101 (antibody), sequence (VL): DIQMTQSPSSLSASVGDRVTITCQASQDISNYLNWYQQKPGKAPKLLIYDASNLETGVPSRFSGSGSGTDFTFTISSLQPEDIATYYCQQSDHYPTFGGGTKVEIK
recombinant human OX40 (Acro Biosystems, cat. no. OXO-H5224) (human), sequence (P43489 29-216 limits assumed): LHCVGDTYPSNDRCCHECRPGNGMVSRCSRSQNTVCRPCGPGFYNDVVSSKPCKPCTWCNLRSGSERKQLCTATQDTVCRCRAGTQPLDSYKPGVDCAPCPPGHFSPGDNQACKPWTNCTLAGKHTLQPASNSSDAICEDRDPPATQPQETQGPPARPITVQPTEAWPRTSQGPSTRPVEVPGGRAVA
human OX40, cell surface-expressed (human), sequence (P43489 29-277): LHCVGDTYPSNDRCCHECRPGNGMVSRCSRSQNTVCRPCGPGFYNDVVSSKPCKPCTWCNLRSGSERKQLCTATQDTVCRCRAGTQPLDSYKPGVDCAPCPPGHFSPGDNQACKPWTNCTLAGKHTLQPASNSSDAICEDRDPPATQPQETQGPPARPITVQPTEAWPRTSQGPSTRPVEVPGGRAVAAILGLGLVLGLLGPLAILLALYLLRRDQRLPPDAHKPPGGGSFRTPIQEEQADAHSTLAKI

With IgG1-CD134-Hu106 (antibody) the Kd [1] was 0.0093 µM, the koff [1] was 0.0024 s⁻¹ and the kon [1] was 260000 M⁻¹ s⁻¹. It also gave an EC50 (read off the curve) [2] of 0.08 mg/L, an EC50 (read off the curve) [3] of 0.05 mg/L and a corrected association response [4] of 1.06 nm. For the same substance, the corrected association response [5] was 0.05 nm, the corrected association response [6] was 0.8 nm and the corrected association response [7] was 0.03 nm. The corrected association response [8] was 0.13 nm, the corrected association response [9] was 0.01 nm and the corrected association response [10] was 0.29 nm. For the same substance, the corrected association response [11] was 0.05 nm, the EC50 (read off the curve) [12] was 0.06 mg/L and the corrected association response [13] was 0.01 nm. It also gave a corrected association response [14] of 0.01 nm, a corrected association response [15] of 0.02 nm and a corrected association response [16] of -0.01 nm. The corrected association response [17] was -0.01 nm, the corrected association response [18] was 0.31 nm and the corrected association response [19] was 0 nm. For the same substance, the Kd [20] was 0.24 µM, the koff [20] was 0.029 s⁻¹ and the kon [20] was 120000 M⁻¹ s⁻¹. For the same substance, the corrected association response [21] was 1.39 nm, the EC50 (read off the curve) [22] was 0.06 mg/L and the EC50 (read off the curve) [23] was 0.06 mg/L. It also gave an EC50 (read off the curve) [24] of 0.06 mg/L.

For “IgG1-CD134-RG7888-K322A-E345R (antibody)”, the EC50 (read off the curve) [25] was 0.6 mg/L and the EC50 (read off the curve) [26] was 0.03 µM.

For IgG1-CD134-IBI101 (antibody), the Kd [1] was 0.053 µM, the EC50 [27] was 0.101 mg/L and the EC50 [28] was 0.1 mg/L. For the same substance, the EC50 [29] was 0.111 mg/L, the EC50 [30] was 0.128 mg/L and the EC50 [31] was 1.86 mg/L. The EC50 [32] was 0.192 mg/L, the EC50 (read off the curve) [2] was 0.09 mg/L and the EC50 [33] was 0.104 mg/L. It also gave an EC50 [34] of 0.727 mg/L, a corrected association response [4] of 0.74 nm and a corrected association response [5] of 0.02 nm. It also gave a corrected association response [6] of 0.82 nm, a corrected association response [7] of 0.07 nm and a corrected association response [8] of 0.15 nm. It also gave a corrected association response [9] of -0.03 nm, a corrected association response [10] of 0.24 nm and a corrected association response [11] of -0.02 nm. It also gave an EC50 (read off the curve) [12] of 0.08 mg/L, a corrected association response [13] of 0.01 nm and a corrected association response [14] of 0.01 nm. The corrected association response [15] was 0.31 nm, the corrected association response [16] was -0.02 nm and the corrected association response [17] was 0 nm. It also gave a corrected association response [18] of 0.26 nm, a corrected association response [19] of 0.02 nm and a Kd [20] of 0.4 µM. For the same substance, the corrected association response [21] was 1.23 nm, the EC50 (read off the curve) [22] was 0.08 mg/L and the EC50 (read off the curve) [23] was 0.06 mg/L.

Substance IgG1-CD134-INCAGN1949 (antibody) has a Kd [1] of 0.16 µM, an EC50 (read off the curve) [2] of 0.06 mg/L and an EC50 (read off the curve) [3] of 0.07 mg/L. The corrected association response [4] was 1.39 nm, the corrected association response [5] was 0.55 nm and the corrected association response [6] was 0.73 nm. It also gave a corrected association response [7] of 0.02 nm, a corrected association response [8] of 0.11 nm and a corrected association response [9] of -0.02 nm. It also gave a corrected association response [10] of 0.25 nm, a corrected association response [11] of -0.01 nm and an EC50 (read off the curve) [12] of 0.1 mg/L. It also gave a corrected association response [13] of 0.01 nm, a corrected association response [14] of 0.01 nm and a corrected association response [15] of 0.01 nm. For the same substance, the corrected association response [16] was -0.03 nm, the corrected association response [17] was 0 nm and the corrected association response [18] was 0.01 nm. The corrected association response [19] was 0 nm, the Kd [20] was 0.23 µM and the corrected association response [21] was 1.74 nm. For the same substance, the EC50 (read off the curve) [22] was 0.08 mg/L and the EC50 (read off the curve) [24] was 0.08 mg/L.
